Reference: PMC3830444

Columns and labels:
activated protein C = activated protein C (UniProt P04070)
human α-thrombin (human) [1] = target: human α-thrombin (human) (UniProt P00734)
γT-thrombin = γT-thrombin (UniProt P00734)
[2] = target: FPR-chloromethyl ketone-thrombin (active site-inhibited α-thrombin) (human) (UniProt P00734); assay: ELISA; HCII 1-75 immobilised on microtiter plates; α-thrombin or FPR-ck-thrombin incubated with or without competitor peptides or proteins; bound thrombin detected after washes with a horseradish peroxidase-conjugated sheep anti-human antibody (A490); one-site binding fit, IC50 = competitor concentration that reduces binding by 50%
human α-thrombin (human) [3] = target: human α-thrombin (human) (UniProt P00734); remark: listed apart in the source
human α-thrombin (human) [4] = target: human α-thrombin (human) (UniProt P00734); assay: ELISA; HCII 1-75 immobilised on microtiter plates; α-thrombin or FPR-ck-thrombin incubated with or without competitor peptides or proteins; bound thrombin detected after washes with a horseradish peroxidase-conjugated sheep anti-human antibody (A490); one-site binding fit, IC50 = competitor concentration that reduces binding by 50%
human α-thrombin (human) [5] = target: human α-thrombin (human) (UniProt P00734); assay: ELISA

activated protein C, sequence (P04070 whole entry, looked up): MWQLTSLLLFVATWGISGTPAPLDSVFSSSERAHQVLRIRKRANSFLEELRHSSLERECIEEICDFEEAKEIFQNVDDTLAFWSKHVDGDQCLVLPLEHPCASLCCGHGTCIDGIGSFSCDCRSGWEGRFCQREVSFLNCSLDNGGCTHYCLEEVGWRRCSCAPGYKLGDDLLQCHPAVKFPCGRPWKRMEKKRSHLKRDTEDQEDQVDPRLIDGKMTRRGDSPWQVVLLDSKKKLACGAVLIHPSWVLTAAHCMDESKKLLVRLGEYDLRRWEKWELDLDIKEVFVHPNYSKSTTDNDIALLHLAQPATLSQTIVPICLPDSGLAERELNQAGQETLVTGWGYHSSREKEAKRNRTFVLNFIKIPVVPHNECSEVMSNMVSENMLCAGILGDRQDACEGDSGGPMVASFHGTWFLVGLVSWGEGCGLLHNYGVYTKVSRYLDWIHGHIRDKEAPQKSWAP

| Substance | second order rate constant of inhibition (k2) of APC (activated protein C) [M⁻¹ s⁻¹] | second order rate constant of inhibition (k2) of α-thrombin (human α-thrombin (human) [1]) [M⁻¹ s⁻¹] | second order rate constant of inhibition (k2) of γT-thrombin (γT-thrombin) [M⁻¹ s⁻¹] | IC50 [2] [µM] | concentration required to double the Thrombin Clotting Time (TCT) of diluted citrated human plasma (human α-thrombin (human) [3]) [µM] | further results |
| --- | --- | --- | --- | --- | --- | --- |
| HAPI RCL5 (HAPI M358R with additional F352A/L353V/E354V/A355I/I356A/I460L substitutions) (from UniProt P01009 25-418) |  |  |  | 17 |  |  |
| HCII 1-75 (recombinant protein of 84 amino acids: residues 1-75 of heparin cofactor II with an N-terminal nonapeptide tag) (domain or fragment) |  |  |  | 9 | 12 | IC50 (human α-thrombin (human) [4]): 8 µM |
| HV3API M358R (HV3 residues 54-66 fused through G6 to the N-terminus of API M358R) (from UniProt P01009 25-418) | 31700 |  |  |  |  |  |
| HV3_(54-66) synthetic peptide |  |  |  |  | 0.45 | IC50 (human α-thrombin (human) [5]): 0.9 µM |

More lines, main results first:

| second order rate constant of inhibition (k2) of APC (activated protein C) [M⁻¹ s⁻¹] | second order rate constant of inhibition (k2) of α-thrombin (human α-thrombin (human) [1]) [M⁻¹ s⁻¹] | second order rate constant of inhibition (k2) of γT-thrombin (γT-thrombin) [M⁻¹ s⁻¹] | Substance | IC50 [2] [µM] | concentration required to double the Thrombin Clotting Time (TCT) of diluted citrated human plasma (human α-thrombin (human) [3]) [µM] | further results |
| --- | --- | --- | --- | --- | --- | --- |
| 28300 | 367000 | 98300 | API M358R (alpha-1 proteinase inhibitor with the substitution of Met358 by Arg) (from UniProt P01009 25-418) (natural protein) |  |  |  |
| 28300 | 3.1e+06 | 567000 | HAPI M358R (residues 1-75 of heparin cofactor II fused to API M358R) (from UniProt P01009 25-418) |  |  |  |
